Earlier results as cited in publication PMC3042137.

Target: JIP1 (L-pepJIP1) (Homo sapiens) (UniProt Q9UQF2)
Assay: ITC

Chain of UniProt Q9UQF2 (Q9UQF2 whole entry): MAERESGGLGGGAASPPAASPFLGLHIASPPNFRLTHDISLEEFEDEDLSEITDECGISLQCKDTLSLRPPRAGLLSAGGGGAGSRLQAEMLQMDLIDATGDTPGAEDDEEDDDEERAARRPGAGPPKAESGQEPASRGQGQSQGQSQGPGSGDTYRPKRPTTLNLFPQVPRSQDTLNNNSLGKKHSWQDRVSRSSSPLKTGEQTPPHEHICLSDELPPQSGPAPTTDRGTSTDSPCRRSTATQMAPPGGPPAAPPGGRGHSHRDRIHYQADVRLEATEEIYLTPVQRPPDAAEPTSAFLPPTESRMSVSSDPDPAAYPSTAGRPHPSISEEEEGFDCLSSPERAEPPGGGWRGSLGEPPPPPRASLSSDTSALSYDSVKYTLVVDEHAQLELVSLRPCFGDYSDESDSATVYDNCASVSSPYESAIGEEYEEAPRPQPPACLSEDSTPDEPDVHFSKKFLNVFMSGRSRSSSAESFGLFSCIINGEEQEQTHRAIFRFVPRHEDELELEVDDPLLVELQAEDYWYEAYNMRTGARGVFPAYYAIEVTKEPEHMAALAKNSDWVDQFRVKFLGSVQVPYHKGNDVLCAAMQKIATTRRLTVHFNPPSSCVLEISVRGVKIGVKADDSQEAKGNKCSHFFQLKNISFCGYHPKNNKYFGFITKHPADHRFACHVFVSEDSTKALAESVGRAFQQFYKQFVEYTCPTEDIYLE

- Kd: 420 nM
Substance: JNK1 (from UniProt P45983)
